According to US20220089743A1 (Chugai, published 2022):
Numbering of substitutions follows the chain as printed. Like-named read-outs stand apart in the source and are kept apart here.

B1: DQN0344H0976/L0591//DQN0385H1270/L0681-F6 (bispecific antibody)
heavy 1: QVQLVESGGGVVQPGGSLRLSCAASGFTFSSAYWMVWVRQAPGQGLEWMGAVYGGSDTTYYAKWTEGRFTISRDTSKNTLYLQMNSLRAEDTAVYYCAREPLNYYYYGELNLWGQGTLVTVSSASTKGPSVFPLAPSSKSTSGGTAALGCLVKDYFPEPVTVSWNSGALTSGVHTFPAVLKSSGLYSLSSVVTVPSSSLGTQTYICNVNHKPSNTKVDKRVEPKSCDKTHTCPPCPAPELRRGPSVFLFPPKPKDTLMISRTPEVTCVVVDVSHEDPEVKFNWYVDGVEVHNAKTKPREEQYNSTYRVVSVLTVLHQDWLNGKEYKCKVSNKALPAPIEKTISKAKGQPREPQVYTLPPSREEMTKNQVSLTCLVKGFYPSDIAVEWESNGQPENNYKTTPPYLDSDGSFFLYSKLTVDKSRWQEGNVFSCSVLHEALHAHYTREELSLSP
light 1: DIQMTQSPSSLSASVGDRVTITCQATEEIYSGLAWYQQKPGKAPKLLIYYVSTLYEGIPARFSGSGSGTDFTLTISSLEPEDFAVYYCQTYEDVSAVTFGQGTKVEIKRTVAAPSVFIFPPSDEQLKSGTAEVVCLLNNFYPREAKVQWKVDNALQSGNSEESVTEQDSKDSTYSLSSTLTLSKADYEKHKVYACEVTHQGLSSPVTKSFNRGEC
heavy 2: QVQLVESGGGVVQPGRSLRLSCAASGFTFSEWYFMSWVRQAPGKGLEWVASIDTGSGSIDYAEWVEGRFTISRDNSKNTLYLQMNSLRAEDTAVYYCARDIGIDYNFWGPGTLVTVSSASTKGPSVFPLAPSSKSTSGGTAALGCLVEDYFPEPVTVSWNSGALTSGVHTFPAVLESSGLYSLSSVVTVPSSSLGTKTYICNVNHKPSNTKVDKRVEPKSCDKTHTCPPCPAPELRRGPSVFLFPPKPKDTLMISRTPEVTCVVVDVSHEDPEVKFNWYVDGVEVHNAKTKPREEQYNSTYRVVSVLTVLHQDWLNGKEYKCKVSNKALPAPIEKTISKAKGQPREPQVYTLPPSRKEMTKNQVSLTCLVKGFYPSDIAVEWESNGQPENNYKTTPPYLDSDGSFFLYSKLTVDKSRWQQGNVFSCSVLHEALHAHYTRKELSLSP
light 2: DIQMTQSPSSLSASVGDRVTITCQTTQSISSYLNWYQQKPGQPPKLLIYYASTKAEGIPARFSGSGLGTDFTLTISSLEPEDFAVYYCHYGISKVSFGQGTKVEIKRTVAAPSVFIFPPSDEQLKSGTAKVVCLLNNFYPREAKVQWKVDNALQSGNSKESVTEQDSKDSTYSLSSTLTLSKADYEKHKVYACEVTHQGLSSPVTKSFNRGEC
B2: DQN0344H0976/L0591//DQN0385H1255/L0605-F6 (bispecific antibody)
heavy 1: B1 heavy 1
light 1: B1 light 1
heavy 2: B1 heavy 2 with E63G, G67E
light 2: B1 light 2 with L67S
B3: DQN0344H0976/L0591//DQN0385H1270/L0722-F6 (bispecific antibody)
heavy 1: B1 heavy 1
light 1: B1 light 1
heavy 2: B1 heavy 2
light 2: B1 light 2 with E79Q
B4: DQN0344H0976/L0591//DQN0385H1352/L0681-F6 (bispecific antibody)
heavy 1: B1 heavy 1
light 1: B1 light 1
heavy 2: B1 heavy 2 with T28E
light 2: B1 light 2
B5: DQN0344H0976/L0591//DQN0385H1527/L0605-F6 (bispecific antibody)
heavy 1: B1 heavy 1
light 1: B1 light 1
heavy 2: B1 heavy 2 with S30A, E31S
light 2: B1 light 2 with L67S
B6: DQN0344H1013/L0620//DQN0385H1270/L0681-F6 (bispecific antibody)
heavy 1: B1 heavy 1 with G16R, L112V
light 1: B1 light 1 with E28N, Y55A, E56Y
heavy 2: B1 heavy 2
light 2: B1 light 2
B7: DQN0344H0976/L0591//DQN0385H1255/L0605-F6.v2 (bispecific antibody, V domains shown)
VH 1: QVQLVESGGGVVQPGGSLRLSCAASGFTFSSAYWMVWVRQAPGQGLEWMGAVYGGSDTTYYAKWTEGRFTISRDTSKNTLYLQMNSLRAEDTAVYYCAREPLNYYYYGELNLWGQGTLVTVSS
VL 1: DIQMTQSPSSLSASVGDRVTITCQATEEIYSGLAWYQQKPGKAPKLLIYYVSTLYEGIPARFSGSGSGTDFTLTISSLEPEDFAVYYCQTYEDVSAVTFGQGTKVEIK
VH 2: QVQLVESGGGVVQPGRSLRLSCAASGFTFSEWYFMSWVRQAPGKGLEWVASIDTGSGSIDYAGWVEERFTISRDNSKNTLYLQMNSLRAEDTAVYYCARDIGIDYNFWGPGTLVTVSS
VL 2: DIQMTQSPSSLSASVGDRVTITCQTTQSISSYLNWYQQKPGQPPKLLIYYASTKAEGIPARFSGSGSGTDFTLTISSLEPEDFAVYYCHYGISKVSFGQGTKVEIK
B8: DQN0344H1013/L0620//DQN0385H1521/L0605-F6.v2 (bispecific antibody, V domains shown)
VH 1: B7 VH 1 with G16R, L112V
VL 1: B7 VL 1 with E28N, Y55A, E56Y
VH 2: B7 VH 2 with S30E, E31S, G63E, E67G
VL 2: B7 VL 2

Key:
Assay in all cases: cell-based or functional assay
[1] = biological target: T1, HLA-DQ2.5 on IHW09023 cells loaded with omega1/2 gliadin peptide (human; wheat)
[2] = biological target: T2, HLA-DQ2.5 on IHW09023 cells loaded with 33 mer gliadin peptide (human; wheat)
[3] = biological target: T3, HLA-DQ2.5 on IHW09023 cells loaded with gamma 4a gliadin peptide (human; wheat)
[4] = biological target: T4, HLA-DQ2.5 on IHW09023 cells loaded with gamma 3 gliadin peptide (human; wheat)
[5] = biological target: T5, HLA-DQ2.5 on IHW09023 cells loaded with gamma 4d gliadin peptide (human; wheat)
[6] = biological target: T6, HLA-DQ2.5 on IHW09023 cells loaded with BC hordein peptide (human; barley)
[7] = biological target: T7, HLA-DQ2.5 on IHW09023 cells loaded with gamma 2 gliadin peptide (human; wheat)
[8] = biological target: T8, HLA-DQ2.5 on IHW09023 cells loaded with gamma 1 gliadin peptide (human; wheat)
[9] = biological target: T1, HLA-DQ2.5 on IHW09023 cells loaded with …; remark: listed apart in the source
[10] = biological target: T2, HLA-DQ2.5 on IHW09023 cells loaded with …; remark: listed apart in the source
[11] = biological target: T3, HLA-DQ2.5 on IHW09023 cells loaded with …; remark: listed apart in the source
[12] = biological target: T4, HLA-DQ2.5 on IHW09023 cells loaded with …; remark: listed apart in the source
[13] = biological target: T5, HLA-DQ2.5 on IHW09023 cells loaded with …; remark: listed apart in the source
[14] = biological target: T6, HLA-DQ2.5 on IHW09023 cells loaded with …; remark: listed apart in the source
[15] = biological target: T7, HLA-DQ2.5 on IHW09023 cells loaded with …; remark: listed apart in the source
[16] = biological target: T8, HLA-DQ2.5 on IHW09023 cells loaded with …; remark: listed apart in the source
[17] = biological target: HLA-DQ2.2 on HBBB2.2 cells loaded with 33 mer gliadin peptide (human; wheat)

Binder | IC50, ω1 gliadin TCR, 25 µM ω1/2 gliadin [1] | IC50, ω2 gliadin TCR, 250 nM ω1/2 gliadin [1] | IC50, α1b gliadin TCR, 250 nM 33mer gliadin [2] | IC50, α2 gliadin TCR, 250 nM 33mer gliadin [2] | IC50, γ4a gliadin TCR, 25 µM γ4a gliadin [3] | IC50, γ3 gliadin TCR, 100 µM γ3 gliadin [4] | IC50, γ4d gliadin TCR, 100 µM γ4d gliadin [5] | IC50, BC hordein TCR, 250 nM BC hordein [6] | IC50, γ2 gliadin TCR, 250 nM γ2 gliadin [7] | IC50, γ1 gliadin TCR, 250 nM γ1 gliadin [8] | IC50, α1a gliadin TCR, 250 nM 33mer gliadin [2] | also measured
B1 | 2.07 ng/mL | 0.26 ng/mL | 1.36 ng/mL | 0.34 ng/mL | 749 ng/mL | 2.4 ng/mL | 11.8 ng/mL | 12 ng/mL | 182 ng/mL | 1.05 ng/mL | – | –
B2 | 2.62 ng/mL | 0.25 ng/mL | 2.66 ng/mL | 0.56 ng/mL | 1430 ng/mL | 2.31 ng/mL | 12.4 ng/mL | 13.6 ng/mL | 440 ng/mL | 0.91 ng/mL | 0.49 ng/mL | –
B3 | 2.55 ng/mL | 0.26 ng/mL | 1.41 ng/mL | 0.31 ng/mL | 726 ng/mL | 2.88 ng/mL | 16.3 ng/mL | 13.2 ng/mL | 281 ng/mL | 0.66 ng/mL | 0.38 ng/mL | –
B4 | 1.48 ng/mL | 0.24 ng/mL | 1.37 ng/mL | 0.31 ng/mL | 802 ng/mL | 2.99 ng/mL | 9.82 ng/mL | 10.8 ng/mL | 284 ng/mL | 1.11 ng/mL | 0.29 ng/mL | –
B5 | 3.25 ng/mL | 0.3 ng/mL | 1.84 ng/mL | 0.51 ng/mL | 1210 ng/mL | 2.09 ng/mL | 11.4 ng/mL | 6.54 ng/mL | 637 ng/mL | 0.59 ng/mL | 0.7 ng/mL | –
B6 | 2.51 ng/mL | 0.2 ng/mL | 1.78 ng/mL | 0.33 ng/mL | 1160 ng/mL | 2.63 ng/mL | 13.1 ng/mL | 7.54 ng/mL | 322 ng/mL | 1.11 ng/mL | 0.38 ng/mL | –
B7 | – | – | – | – | – | – | – | – | – | – | – | IC50, ω1 gliadin TCR, 25 µM ω1/2 gliadin [9]: 1.62 ng/mL; IC50, ω2 gliadin TCR, 250 nM ω1/2 gliadin [9]: 0.18 ng/mL; IC50, α1a gliadin TCR, 250 nM 33mer gliadin [10]: 0.46 ng/mL; IC50, α1b gliadin TCR, 250 nM 33mer gliadin [10]: 1.33 ng/mL; IC50, α2 gliadin TCR, 250 nM 33mer gliadin [10]: 0.29 ng/mL; IC50, γ4a gliadin TCR, 25 µM γ4a gliadin [11]: 636 ng/mL; IC50, γ3 gliadin TCR, 100 µM γ3 gliadin [12]: 1.55 ng/mL; IC50, γ4d gliadin TCR, 100 µM γ4d gliadin [13]: 8.69 ng/mL; IC50, BC hordein TCR, 250 nM BC hordein [14]: 9.52 ng/mL; IC50, γ2 gliadin TCR, 250 nM γ2 gliadin [15]: 252 ng/mL; IC50, γ1 gliadin TCR, 250 nM γ1 gliadin [16]: 1.62 ng/mL; IC50, HLA-DQ2.2, α1a gliadin TCR, 25 µM 33mer gliadin [17]: 1.72 ng/mL; IC50, HLA-DQ2.2, α2 gliadin TCR, 1 µM 33mer gliadin [17]: 9.48 ng/mL
B8 | – | – | – | – | – | – | – | – | – | – | – | IC50, ω1 gliadin TCR, 25 µM ω1/2 gliadin [9]: 1.96 ng/mL; IC50, ω2 gliadin TCR, 250 nM ω1/2 gliadin [9]: 0.2 ng/mL; IC50, α1a gliadin TCR, 250 nM 33mer gliadin [10]: 0.6 ng/mL; IC50, α1b gliadin TCR, 250 nM 33mer gliadin [10]: 1.81 ng/mL; IC50, α2 gliadin TCR, 250 nM 33mer gliadin [10]: 0.33 ng/mL; IC50, γ4a gliadin TCR, 25 µM γ4a gliadin [11]: 1250 ng/mL; IC50, γ3 gliadin TCR, 100 µM γ3 gliadin [12]: 1.21 ng/mL; IC50, γ4d gliadin TCR, 100 µM γ4d gliadin [13]: 9.23 ng/mL; IC50, BC hordein TCR, 250 nM BC hordein [14]: 11.4 ng/mL; IC50, γ2 gliadin TCR, 250 nM γ2 gliadin [15]: 785 ng/mL; IC50, γ1 gliadin TCR, 250 nM γ1 gliadin [16]: 1.9 ng/mL; IC50, HLA-DQ2.2, α1a gliadin TCR, 25 µM 33mer gliadin [17]: 1.16 ng/mL; IC50, HLA-DQ2.2, α2 gliadin TCR, 1 µM 33mer gliadin [17]: 6.51 ng/mL
